Data as given in publication PMC12052392 (2025).
Positions count from the first letter of the chain named. Values joined by “and” are separate entries in the source; they are usually repeats but may differ in a detail not shown here. Identical values can stand only once.

T1: GST-fused truncated S2 protein S2 (D1139-E1151) (SARS-CoV-2, UniProt P0DTC2 1139-1151)
T1 chain: DPLQPELDSFKEE

T2: SARS-CoV-2 S2 (T1076-Q1208) antigen, trimeric S2 fusion-core-based antigen (SARS-CoV-2, UniProt P0DTC2 1076-1208)
T2 chain: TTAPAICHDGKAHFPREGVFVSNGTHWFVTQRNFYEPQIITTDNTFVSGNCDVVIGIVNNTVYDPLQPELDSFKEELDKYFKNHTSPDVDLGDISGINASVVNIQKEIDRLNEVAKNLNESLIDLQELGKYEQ

B1: nanobody H145 (VHH)
VHH: QVQLVESGGGLVQTGGSLRLSCEASGSAFSSYAVNWYRQAPGKQREPVAAIGSFNTVYSDSVKGRFTISRDNAKNTVYLQMNSLKPEDTAVYICNARRGATNTWGQGTQVTVSS
modifications: biotin (Biotinylation Kit), only in the BLI with truncated S2 proteins
B2: nanobody H17 (VHH)
VHH: B1 VHH with Q1E, L4V, E23A, I93V, T103Y, S114P
modifications: biotin (Biotinylation Kit), only in the BLI with truncated S2 proteins

Key:
S2 (D1139-D1153) = experiment: ELISA
S2 (G1124-H1159) = experiment: ELISA
[1] = target: T1, GST-fused truncated S2 protein S2 …; experiment: ELISA
[2] = target: T2, SARS-CoV-2 S2 (T1076-Q1208) antigen, …; experiment: BLI

| Binder | EC50 (S2 (D1139-D1153)) | EC50 (S2 (G1124-H1159)) | EC50 [1] | koff [2] |
| --- | --- | --- | --- | --- |
| B1 | 1.01 nM | 0.53 nM | > 170 nM | 0.000149 s⁻¹ and 0.000129 s⁻¹ and 0.000123 s⁻¹ |
| B2 | 4.83 nM | 4.71 nM |  | 0.000525 s⁻¹ and 0.00023 s⁻¹ |
